Results as given in article PMC7751889 (Molecular cell, 2019).

Molecular target: T1, Med15 (residues 1-651 Δ239-271, Δ373-483), mediator component (yeast, UniProt P19659 1-651, Δ239–271 | Δ373–483)
T1 sequence (looked up): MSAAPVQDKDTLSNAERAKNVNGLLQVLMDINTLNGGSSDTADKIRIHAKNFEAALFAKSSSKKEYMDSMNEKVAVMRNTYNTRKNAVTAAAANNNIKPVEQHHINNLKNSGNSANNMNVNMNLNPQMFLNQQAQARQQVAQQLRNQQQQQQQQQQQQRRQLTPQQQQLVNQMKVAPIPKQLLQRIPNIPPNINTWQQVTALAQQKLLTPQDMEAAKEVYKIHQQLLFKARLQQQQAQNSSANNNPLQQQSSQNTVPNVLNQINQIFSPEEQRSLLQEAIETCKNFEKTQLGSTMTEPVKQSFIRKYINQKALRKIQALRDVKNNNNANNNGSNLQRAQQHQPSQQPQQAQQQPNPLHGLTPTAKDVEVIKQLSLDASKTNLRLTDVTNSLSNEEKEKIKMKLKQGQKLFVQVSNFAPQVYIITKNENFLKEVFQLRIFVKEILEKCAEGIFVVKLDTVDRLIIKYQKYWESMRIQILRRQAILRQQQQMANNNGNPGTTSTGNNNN
Assay: BLI

Kd: 100 nM
B1: Met4 (residues 76 to 160), containing both the UIM and the UIML domains (tandem UBD) (domain or fragment, yeast, UniProt P32389 76-160, looked up)
chain: GNTNLYDHAVTPEILLEQLAYVDNFIPSLDNEFSNVDWNVNTTHNNANNNGADTFSSINANPFDLDEQLAIELSAFADDSFIFPD
modifications: biotin on the Avi tag (BirA)
